Measured values reported in article PMC6177200, “EpCAM ectodomain EpEX is a ligand of EGFR that counteracts EGF-mediated epithelial-mesenchymal transition through modulation of phospho-ERK1/2 in head and neck cancers” (PLoS Biology, 2018).
“And” between values parts separate entries of the source, which are not always exact repeats. Equal values may be shown once. Blank lines part the entries; values can stand above or below the binder they belong to.

Assays:
[1] = biological target: T1, EpEX-Fc (extracellular domain of EpCAM fused to the constant region of human immunoglobulin 1) (human), P16422; assay: native gel or EMSA; purified EpEX-Fc in native versus reducing immunoblot experiments with specific antibodies; conditions: remark: other sources report otherwise
T1 chain: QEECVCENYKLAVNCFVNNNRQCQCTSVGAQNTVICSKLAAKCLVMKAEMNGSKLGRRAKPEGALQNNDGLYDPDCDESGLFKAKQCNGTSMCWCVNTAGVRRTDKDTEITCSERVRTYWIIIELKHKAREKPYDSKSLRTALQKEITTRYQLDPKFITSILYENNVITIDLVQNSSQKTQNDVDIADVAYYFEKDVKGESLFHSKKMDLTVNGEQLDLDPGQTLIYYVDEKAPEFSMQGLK

[2] = biological target: epidermal growth factor receptor (EGFR), endogenous full-length (human (endogenous in FaDu, Cal27, HCT8), UniProt P00533 25-1210); assay: cell-based or functional assay
[3] = biological target: T2, EGFRex (extracellular domain of EGFR, aa 25-642) (UniProt P00533 25-642); assay: cross-linking; BS3 cross-linker (3.6 μg, 30 min, 37 °C); EpEX and EGF 250 pmol, EGFRex 50 pmol in 9 μl of 20 mM HEPES pH 8.0, 100 mM NaCl, 1 hr at 37 °C before; EGF added where indicated; conditions: both partners purified
T2 construct: extracellular domain of epidermal growth factor receptor, aa 25-642; source: expressed and purified as reported [118]

[4] = biological target: T3, EpEX (extracellular domain of EpCAM, aa 24-265), recombinant (human), P16422; assay: as above; conditions: remark: other sources report otherwise
T3 chain: T1 chain

B1: EpEX-Fc (extracellular domain of EpCAM fused to the constant region of human immunoglobulin 1), P16422 24-265 (Fc fusion)
chain: T1 chain
modifications: here or on the partner: N-glycosylated; N-glycosylated
stoichiometry N [1]: 2 and 3

B4: EpEX (extracellular domain of EpCAM, aa 24-265), recombinant, P16422 24-265 (domain or fragment)
chain: T1 chain
stoichiometry N [4]: 2

Further lines, results first:

increase in cell numbers of serum-starved FaDu cells after 72 hr with high-dose EpEX (10 nM); blocked by Cetuximab [2]: 1.5 fold
increase in cell numbers of serum-starved Kyse30 cells after 72 hr with EpEX-Fc (1 and 10 nM; low dose without significant effect); blocked by Cetuximab [2]: 2 fold
pERK1/2 by immunofluorescence in cells treated for 30 min with EpEX-Fc (10 nM) compared to EGF (9 nM) [2]: 3 fold
B2: EpEX-Fc (extracellular domain of EpCAM fused to the constant region of human immunoglobulin 1) (Fc fusion, UniProt P16422 24-265, looked up)
chain: T1 chain
modifications: N-glycosylated

stoichiometry N [3]: 1 EpEX per EGFRex and 2 EpEX per EGFRex
B3: EpEX (extracellular domain of EpCAM, aa 24-265), recombinant (domain or fragment, human, UniProt P16422 24-265, looked up)
chain: T1 chain
notes: extracellular domain of EpCAM, aa 24-265; also called purified recombinant EpEX; source: Sf9 insect cells, purified as described [47]
